# Measured values from patent US6864224 (BROWN UNIVERSITY RESEARCH FOUNDATION, dated 2005).
# Molecular target: endogenous Raf-1 of Rat-1 cells (rat (Rat-1 cells), UniProt P11345 1-648)
# Assay: co-immunoprecipitation of endogenous proteins with RKIP antiserum
# From the text: For co-precipitation experiments of endogenous proteins, 2 ×10^7 Rat-1 cells were lysed by sonication in PBS, and the immunoprecipitates were washed 4 times with PBS.
binder,measurement,value
"endogenous RKIP of Rat-1 cells (other, rat (Rat-1 cells), UniProt P31044 2-187, looked up, Endogenous protein in cell lysates) AADISQWAGPLSLQEVDEPPQHALRVDYGGVTVDELGKVLTPTQVMNRPSSISWDGLDPGKLYTLVLTDPDAPSRKDPKFREWHHFLVVNMKGNDISSGTVLSEYVGSGPPKDTGLHRYVWLVYEQEQPLNCDEPILSNKSGDNRGKFKVESFRKKYHLGAPVAGTCFQAEWDDSVPKLHDQLAGK",binding result,binds
